Changes are numbered by the printed parent chain. Numbers in names are those of the source.
T1: human CTLA4 protein (human, UniProt P16410 37-162, limits assumed)
T1 construct: bought protein coated on the ELISA plate; also called human CTLA4 antigen
T1 sequence (looked up): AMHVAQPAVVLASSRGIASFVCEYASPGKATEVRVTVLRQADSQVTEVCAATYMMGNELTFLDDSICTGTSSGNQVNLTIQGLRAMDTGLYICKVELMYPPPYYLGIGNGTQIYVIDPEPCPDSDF

B1: Abs-353 (other)
heavy: VIHVTKEVKEVATLSCGHNVSVEELAQTRIYWQKNKKMVLTMMSGDMNIWPEYKNRTIFDITNNLSIVILELRPSDEGTYECVVLKYEKDAFKREHLAEVTLSVKADGGGGSGGGGSGGGGSGGGGSGEVQLLESGGGLVQPGGSLRLSCAASGFTFSSYAMSWVRQAPGKGLEWVSGISGSGGFTYYADSVKGRFTISRDNSKNTLYLQMNSLRAEDTAVYYCAKPPRGYNYGPFDYWGQGTLVTVSSASTKGPSVFPLAPCSRSTSESTAALGCLVKDYFPEPVTVSWNSGALTSGVHTFPAVLQSSGLYSLSSVVTVPSSSLGTKTYTCNVDHKPSNTKVDKRVESKYGPPCPPCPAPEFLGGPSVFLFPPKPKDTLMISRTPEVTCVVVDVSQEDPEVQFNWYVDGVEVHNAKTKPREEQFNSTYRVVSVLAVLHQDWLNGKEYKCKVSNKGLPSSIEKTISKAKGQPREPQVYTLPPSQEEMTKNQVSLTCLVKGFYPSDIAVAWESNGQPENNYKTTPPVLDSDGSFFLYSRLTVDKSRWQEGNVFSCSVMHEALHAHYTQKSLSLSLGK
light: SYVLTQPPSVSVAPGQTARITCGGNNIGSKSVHWYQQKPGQAPVLVVYDDSDRPSGIPERFSGSNSGNTATLTISRVEAGDEADYYCQVWDSSSDHVVFGGGTKLTVLGQPKAAPSVTLFPPSSEELQANKATLVCLISDFYPGAVTVAWKADSSPVKAGVETTTPSKQSNNKYAASSYLSLTPEQWKSHRSYSCQVTHEGSTVEKTVAPTECS
notes: CD80 IgV mutant fused to the N-terminus of the sugemalimab heavy chain; also called CD80 IgV mutant E35N/A71E-sugemalimab fusion
B2: Abs-256 (other)
heavy: B1 heavy with H18W, A26M, N35E, L85D
light: B1 light
notes: the paragraph that names the antibody is followed; also called CD80 IgV mutant H18W/A26M/A71E/L85D-sugemalimab fusion
B3: Abs-257 (other)
heavy: B1 heavy with H18W, A26C, N35E, L85N
light: B1 light
notes: the paragraph that names the antibody is followed; also called CD80 IgV mutant H18W/A26C/A71E/L85N-sugemalimab fusion
B4: Abs-253 (other)
heavy: B1 heavy with N35E, I69Y
light: B1 light
notes: the paragraph that names the antibody is followed; also called CD80 IgV mutant I69Y/A71E-sugemalimab fusion
B5: Abs-261 (other)
heavy: B1 heavy with A26C, N35E, L85D
light: B1 light
notes: the paragraph that names the antibody is followed; also called CD80 IgV mutant A26C/A71E/L85D-sugemalimab fusion
B6: Abs-272 (other)
heavy: B1 heavy with N35E, M47Q, I69Y, V83L
light: B1 light
notes: CD80 IgV mutant fused to the N-terminus of the sugemalimab heavy chain; also called CD80 IgV mutant M47Q/I69Y/A71E/V83L-sugemalimab fusion
B7: Abs-251 (other)
heavy: B1 heavy with N35E, I69Y, V83L
light: B1 light
notes: the paragraph that names the antibody is followed; also called CD80 IgV mutant I69Y/A71E/V83L-sugemalimab fusion
B8: Abs-271 (other)
heavy: B1 heavy with N35E, M47H, I69Y, V83L
light: B1 light
notes: CD80 IgV mutant fused to the N-terminus of the sugemalimab heavy chain; also called CD80 IgV mutant M47H/I69Y/A71E/V83L-sugemalimab fusion
B9: Abs-366 (other)
heavy: B1 heavy with N35T, E71N
light: B1 light
notes: CD80 IgV mutant fused to the N-terminus of the sugemalimab heavy chain; also called CD80 IgV mutant E35T/A71N-sugemalimab fusion
B10: Abs-262 (other)
heavy: B1 heavy with A26C, N35E, L85N
light: B1 light
notes: the paragraph that names the antibody is followed; also called CD80 IgV mutant A26C/A71E/L85N-sugemalimab fusion
B11: Abs-255 (other)
heavy: B1 heavy with H18W, A26M, N35E, L85N
light: B1 light
notes: the paragraph that names the antibody is followed; also called CD80 IgV mutant H18W/A26M/A71E/L85N-sugemalimab fusion
B12: Abs-252 (other)
heavy: B1 heavy with N35E, I69W, V83L
light: B1 light
notes: the paragraph that names the antibody is followed; also called CD80 IgV mutant I69W/A71E/V83L-sugemalimab fusion
B13: Abs-248 (other)
heavy: B1 heavy with N35E, M47A, I69W, V83L
light: B1 light
notes: the paragraph that names the antibody is followed; also called CD80 IgV mutant M47A/I69W/A71E/V83L-sugemalimab fusion
B14: Abs-99 (other)
heavy: B1 heavy with N35E, E71A
light: B1 light
notes: CD80 IgV fused to the N-terminus of the heavy chain of the anti-PD-L1 antibody sugemalimab; also called wild type Abs-99; wild-type CD80 IgV-sugemalimab fusion polypeptide complex
B15: Abs-250 (other)
heavy: B1 heavy with N35E, M47A, I69W
light: B1 light
notes: the paragraph that names the antibody is followed; also called CD80 IgV mutant M47A/I69W/A71E-sugemalimab fusion
B16: Abs-249 (other)
heavy: B1 heavy with N35E, M47A, I69Y
light: B1 light
notes: the paragraph that names the antibody is followed; also called CD80 IgV mutant M47A/I69Y/A71E-sugemalimab fusion
B17: Abs-259 (other)
heavy: B1 heavy with A26M, N35E, L85N
light: B1 light
notes: the paragraph that names the antibody is followed; also called CD80 IgV mutant A26M/A71E/L85N-sugemalimab fusion
B18: Abs-265 (other)
heavy: B1 heavy with T13K, N35E, M42L, M47H
light: B1 light
notes: the paragraph that names the antibody is followed; also called CD80 IgV mutant T13K/M42L/M47H/A71E-sugemalimab fusion
B19: Abs-354 (other)
heavy: B1 heavy with E71N
light: B1 light
notes: CD80 IgV mutant fused to the N-terminus of the sugemalimab heavy chain; also called CD80 IgV mutant E35N/A71N-sugemalimab fusion
B20: Abs-266 (other)
heavy: B1 heavy with T13K, N35E, M42L, M47Q
light: B1 light
notes: the paragraph that names the antibody is followed; also called CD80 IgV mutant T13K/M42L/M47Q/A71E-sugemalimab fusion
B21: Abs-260 (other)
heavy: B1 heavy with A26M, N35E, L85D
light: B1 light
notes: the paragraph that names the antibody is followed; also called CD80 IgV mutant A26M/A71E/L85D-sugemalimab fusion
B22: Abs-247 (other)
heavy: B1 heavy with N35E, M47A, I69Y, V83L
light: B1 light
notes: the paragraph that names the antibody is followed; also called CD80 IgV mutant M47A/I69Y/A71E/V83L-sugemalimab fusion
B23: Abs-270 (other)
heavy: B1 heavy with T13K, N35E, M42T
light: B1 light
notes: CD80 IgV mutant fused to the N-terminus of the sugemalimab heavy chain; also called CD80 IgV mutant T13K/M42T/A71E-sugemalimab fusion
B24: Abs-264 (other)
heavy: B1 heavy with H18W, A26V, L85N
light: B1 light
notes: the paragraph that names the antibody is followed; also called CD80 IgV mutant H18W/A26V/E35N/A71E/L85N-sugemalimab fusion
B25: Abs-254 (other)
heavy: B1 heavy with N35E, I69W
light: B1 light
notes: the paragraph that names the antibody is followed; also called CD80 IgV mutant I69W/A71E-sugemalimab fusion
B26: Abs-268 (other)
heavy: B1 heavy with T13K, N35E, M42T, M47H
light: B1 light
notes: the paragraph that names the antibody is followed; also called CD80 IgV mutant T13K/M42T/M47H/A71E-sugemalimab fusion
B27: Abs-267 (other)
heavy: B1 heavy with T13K, N35E, M42L
light: B1 light
notes: the paragraph that names the antibody is followed; also called CD80 IgV mutant T13K/M42L/A71E-sugemalimab fusion
B28: Abs-273 (other)
heavy: B1 heavy with N35E, M47K, I69Y, V83L
light: B1 light
notes: CD80 IgV mutant fused to the N-terminus of the sugemalimab heavy chain; also called CD80 IgV mutant M47K/I69Y/A71E/V83L-sugemalimab fusion
B29: Abs-258 (other)
heavy: B1 heavy with H18W, A26C, N35E, L85D
light: B1 light
notes: the paragraph that names the antibody is followed; also called CD80 IgV mutant H18W/A26C/A71E/L85D-sugemalimab fusion
B30: Abs-263 (other)
heavy: B1 heavy with N35E, I69L, V83L
light: B1 light
notes: the paragraph that names the antibody is followed; also called CD80 IgV mutant I69L/A71E/V83L-sugemalimab fusion

Target: T2, human CD28 protein (human, UniProt P10747 19-152)
T2 construct: bought protein coated on the ELISA plate; also called human CD28 antigen
T2 sequence (P10747 19-152 limits assumed): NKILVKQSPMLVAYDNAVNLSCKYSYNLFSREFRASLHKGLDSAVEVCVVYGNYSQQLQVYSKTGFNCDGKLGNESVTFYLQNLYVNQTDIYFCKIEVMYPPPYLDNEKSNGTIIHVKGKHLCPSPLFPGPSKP
Assay: ELISA, plate-coated human CD28
Design: binding strength @ 100nM: reference not given here

Row | EC50 | binding strength @ 100nM | binding result | Binder
1 | 25000 pM | 1450% | – | B1
2 | – | – | no binding | B2
3 | – | – | no binding | B3
4 | – | – | no binding | B4
5 | – | – | no binding | B5
6 | – | – | no binding | B6
7 | – | – | no binding | B7
8 | – | – | no binding | B8
9 | – | – | no binding | B9
10 | – | – | no binding | B10
11 | – | – | no binding | B11
12 | – | – | no binding | B12
13 | – | – | no binding | B13
14 | 27900 pM | 283% | – | B14
15 | – | – | no binding | B15
16 | – | – | no binding | B16
17 | – | – | no binding | B17
18 | – | – | no binding | B18
19 | 22000 pM | 6300% | – | B19
20 | – | – | no binding | B20
21 | – | – | no binding | B21
22 | – | – | no binding | B22
23 | – | – | no binding | B23
24 | – | – | no binding | B24
25 | – | – | no binding | B25
26 | – | – | no binding | B26
27 | – | – | no binding | B27
28 | – | – | no binding | B28
29 | – | – | no binding | B29
30 | 26100 pM | 333% | – | B30

Target: T1, human CTLA4 protein
Assay: ELISA, plate-coated human CTLA4

Row | EC50 | binding strength @ 20nM | binding result | Binder
31 | 128 pM | 2490% | – | B1
32 | – | – | no binding | B2
33 | – | – | no binding | B3
34 | – | – | no binding | B4
35 | – | – | no binding | B5
36 | – | – | no binding | B6
37 | – | – | no binding | B7
38 | – | – | no binding | B8
39 | – | – | no binding | B9
40 | – | – | no binding | B10
41 | – | – | no binding | B11
42 | – | – | no binding | B12
43 | – | – | no binding | B13
44 | 24400 pM | 1200% | – | B14
45 | – | – | no binding | B15
46 | – | – | no binding | B16
47 | – | – | no binding | B17
48 | – | – | no binding | B18
49 | 124 pM | 3010% | – | B19
50 | – | – | no binding | B20
51 | – | – | no binding | B21
52 | – | – | no binding | B22
53 | – | – | no binding | B23
54 | – | – | no binding | B24
55 | – | – | no binding | B25
56 | – | – | no binding | B26
57 | 13700 pM | 1920% | – | B27
58 | – | – | no binding | B28
59 | – | – | no binding | B29
60 | – | – | no binding | B30

Target: PD-L1 on TCR activator PD-L1-CHO cells (UniProt Q9NZQ7 19-290, limits assumed)
Sequence (Q9NZQ7 19-290 limits assumed): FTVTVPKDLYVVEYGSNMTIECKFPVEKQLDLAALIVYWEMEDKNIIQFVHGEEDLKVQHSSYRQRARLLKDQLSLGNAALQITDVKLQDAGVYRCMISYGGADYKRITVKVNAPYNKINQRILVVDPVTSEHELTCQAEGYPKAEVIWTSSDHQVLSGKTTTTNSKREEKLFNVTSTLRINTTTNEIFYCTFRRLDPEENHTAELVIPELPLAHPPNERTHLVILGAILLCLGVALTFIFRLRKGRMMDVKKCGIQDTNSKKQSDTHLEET
Assay: cell-based or functional assay

Row | EC50(nM), Jurkat-NFAT-Luc/CHO-PDL1 | The highest induction relative to 10 nM sugemalimab | Binder
61 | 0.48 nM | 1130% | B1
62 | 0.87 nM | 133% | B2
63 | 0.82 nM | 122% | B3
64 | 0.28 nM | 215% | B14
65 | 0.25 nM | 1610% | B19
66 | 0.65 nM | 128% | B21
67 | 0.82 nM | 154% | B24

— patent EP4538286A1 (Adlai Nortye Biopharma Co., Ltd., dated 2025)
